# Patent publication US20110239331A1
# Legend:
# [1] = target: bee brain calcium channels (Apis mellifera brain neurons, ICa) (Apis mellifera); assay: cell-based or functional assay
# [2] = target: mouse trigeminal (sensory) neuron calcium channels (ICa) (mouse); assay: cell-based or functional assay
Substance,EC50 for inhibition of ICa [1] [nM],preference for insect versus vertebrate calcium channels (against m4) [1] [fold],EC50 for inhibition of ICa in bee neurons [1] [nM],EC50 for inhibition of a component of ICa in mouse sensory neurons [2] [nM],maximum ICa inhibition in mouse sensory neurons [2] [%]
omega-atracotoxin-Hv2a (peptide),0.15,> 50000,–,–,–
ω-agatoxin-IVA (from UniProt P30288 1-48) (peptide),–,2,10,20,40
